These are literature values, as cited in patent publication US7557183B2, “Polyethylene glycol linked GLP-1 compounds” (Eli Lilly and Company, priority 2003, dated 2009).

For the series the following is noted: in vivo.

For the substance “GLP-1(7-37): native truncated GLP-1 peptide, SEQ ID NO: 1”, the serum half-life was 3 to 5 min.
